Like-named read-outs stand apart in the source and are kept apart here.
T1: human IL4Rα/Fc (human, UniProt P24394 26-232, limits assumed)
T1 construct: also called rh IL4Ra/Fc
T1 sequence (looked up): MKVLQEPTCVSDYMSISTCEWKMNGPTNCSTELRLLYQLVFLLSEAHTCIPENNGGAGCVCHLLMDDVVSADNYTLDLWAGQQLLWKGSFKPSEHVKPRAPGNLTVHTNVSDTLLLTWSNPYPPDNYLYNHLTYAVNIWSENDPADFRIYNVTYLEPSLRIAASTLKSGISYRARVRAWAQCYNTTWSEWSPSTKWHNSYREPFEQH


Key:
[1] = molecular target: T2, recombinant human IL12Rβ1/Fc fusion protein (human, UniProt P42701 24-545); experiment: solution equilibrium titration (SET), BioVeris ECL, Fab
T2 construct: Bought from R&D Systems; Partly used biotinylated; also called rh IL12Rβ1

cynomolgus IL12Rβ1 [2] = molecular target: T3, cynomolgus IL12Rβ1 (cynomolgus, UniProt A0A2K5VWV1 24-662); experiment: FACS, 1 µg/ml Fab, HEK cells expressing cyno IL12Rβ1
T3 construct: whole, on cells; also called cyno IL12Rβ1; Cyno IL-12Rβ1
Protocol: (§1) Cells of the respective cell line (BaF3 cells stable transfected with cyno and human IL12Rβ1; HEK EBNA and Jurkat cells stable transfected with cyno IL12Rβ1) were counted and adjusted to 2×10⁷ cells/ml in PBS/3% FCS/0.02% NaN₃ (FAGS buffer). FAGS staining was performed in V-bottom 96-well microtiter plates (NUNC™, Wiesbaden, Germany) and 1×10⁵ cells per well were mixed with a) purified Fab fragments or b) purified IgG4 or c) positive control antibody (mouse anti IL12Rβ1, R&D Systems, Cat#: MAB839), diluted in FACS buffer and incubated at […] for 1 h. Cells were then washed 2× with 200 μl FACS buffer/well and taken up in 100 μl phycoerythrin-conjugated goat anti-human IgG (H+L) secondary antibody (Jackson ImmunoResearch) which has been diluted 1:200 in FACS buffer. After 45 min incubation at 4° C. cells were washed 3× with FAGS buffer, resuspended in 100 μl of FACS buffer and cell surface binding of IL12Rβ1 specific antibodies was measured via FL2 fluorescence intensity of cells in FACSCalibur™ (Becton Dickinson).

cynomolgus IL12Rβ1 [3] = molecular target: T3, cynomolgus IL12Rβ1; experiment: FACS, 1 µg/ml Fab, Jurkat cells expressing cyno IL12Rβ1
Protocol: as §1

[4] = molecular target: T2, recombinant human IL12Rβ1/Fc fusion …; experiment: solution equilibrium titration (SET), BioVeris ECL, Fab; remark: listed apart in the source
[5] = molecular target: T2, recombinant human IL12Rβ1/Fc fusion …; experiment: BioVeris competition; Fab titrated with IL12Rβ1/Fc, competitor rhIL-23 on beads
Protocol: (§2) For the IL12 and IL23 binding inhibition assay, 25 μg recombinant human IL12 and 20 μg IL23 (R&D Systems) were directly coupled (NHS/EDC coupling) to 250 μl carboxylic acid M-270 Dynal magnetic beads (2×109 beads/ml), 50 μl Fab antibodies per well (20 nM stock) in 1:4 dilution steps (Fab concentration: 0.6 pM-10 nM) were incubated for 2 h with 50 μl of 40-100 pM IL12Rβ1/Fc fusion in 96 well plates (Nunc). 25 μl IL12 or IL23 coated beads and 1:500 diluted Streptavidin detection antibody labeled with BV-tag™ according to instructions of supplier (BioVeris Europe) were added to each well and incubated for 1.5 h. Detection was performed by BioVeris M-384 SERIES® Workstation (BioVeris Europe). EC50 determination was performed by evaluation of the resulting data by a 4-parameter logistic fit model (XLfit, IDBS).

[6] = molecular target: T2, recombinant human IL12Rβ1/Fc fusion …; experiment: BioVeris competition; Fab titrated with IL12Rβ1/Fc, competitor rhIL-12 on beads
Protocol: as §2

cynomolgus IL12Rβ1 [7] = molecular target: T3, cynomolgus IL12Rβ1; experiment: FACS on Baf3 cells transfected with cyno IL12Rβ1, IgG4
Protocol: as §1

human IL12Rβ1 = molecular target: T4, human IL12Rβ1 (human, UniProt P42701 24-662); experiment: FACS on Baf3 cells transfected with human IL12Rβ1, IgG4
T4 construct: On stably transfected Ba/F3 cells in FACS; on primary human T cells within PBMC in the functional assay; also called human IL12Rβ1 transfected Baf3 cells; Ba/F3/IL12Rβ1 expressing cells
Protocol: as §1

human IL4Rα/Fc = molecular target: T1, human IL4Rα/Fc; experiment: ELISA, antigen directly coated, IgG4
cynomolgus IL12Rβ1 [8] = molecular target: T3, cynomolgus IL12Rβ1; experiment: FACS, 1 µg/ml IgG4, BaF3 cells expressing cyno IL12Rβ1
Protocol: as §1

Binder | Kd [1] [nM] | MFI (mean fluorescent intensity) (cynomolgus IL12Rβ1 [2]) | MFI (mean fluorescent intensity) (cynomolgus IL12Rβ1 [3]) | Kd [4] [nM] | EC50 [5] [nM] | EC50 [6] [nM] | EC50 (cynomolgus IL12Rβ1 [7]) [nM] | EC50 (human IL12Rβ1) [nM] | binding result (human IL4Rα/Fc) | MFI (mean fluorescent intensity) (cynomolgus IL12Rβ1 [8])
MOR05286 Fab (Fab, V domains shown, also called MOR5286) VH: QVQLKESGPALVKPTQTLTLTCTFSGFSLSTSGMGVSWIRQPPGKALEWLALIDWTDDKYYSTSLKTRLTISKDTSKNQVVLTMTNMDPVDTATYYCARTVGKGLYRVDNWGQGTLVTVSS VL: DIELTQPPSVSVAPGQTARISCSGDNLGSKFAYWYQQKPGQAPVLVIYDDSKRPSGIPERFSGSNSGNTATLTISGTQAEDEADYYCQSWDSSSGNDVFGGGTKLTVLG | 0.059 | 368 | 249 | 0.059 | 0.17 | 0.09 | – | – | – | –
MOR05271 IgG4 (antibody, V domains shown, IgG4) VH: QVQLKESGPALVKPTQTLTLTCTFSGFSLSTSTMGVSWIRQPPGKALEWLAWIYWDDDKDYSTSLKSRLTISKDTSKNQVVLTMTNMDPVDTATYYCARANPDLGYFDYWGQGTLVTVSS VL: DIALTQPASVSGSPGQSITISCTGTSSDLGESNYVSWYQQHPGKAPKVMIYDVNKRPSGVSNRFSGSKSGNTASLTISGLQAEDEADYYCGSYDEEDNVFGGGTKLTVLG | – | – | – | – | – | – | 0.073 | 0.143 | no binding | 134
MOR05278 IgG4 (antibody, V domains shown, IgG4) VH: QVQLVESGGGLVQPGGSLRLSCAASGFTFSSYGMSWVRQAPGKGLEWVSYIEPKLFWYATFYAASVKGRFTISRDNSKNTLYLQMNSLRAEDTAVYYCARNDFMEPAYFALWGQGTLVTVSS VL: DIELTQPPSVSVAPGQTARISCSGDNLGSYYAYWYQQKPGQAPVGVIYDDSERPSGIPERFSGSNSGNTATLTISGTQAEDEADYYCSSYTYSKNNVFGGGTKLTVLG | – | – | – | – | – | – | 0.931 | 0.9 | no binding | 350
MOR05281 IgG4 (antibody, V domains shown, IgG4) VH: QVQLKESGPALVKPTQTLTLTCTFSGFSLSTRGVGVSWIRQPPGKALEWLALIYWDEDKYYSTSLKTRLTISKDTSKNQVVLTMTNMDPVDTATYYCARYQSGYYYNNDGWGVDIWGQGTLVTVSS VL: DIQMTQSPSSLSASVGDRVTITCRASQSISSWLNWYQQKPGKAPKLLIYAASSLQSGVPSRFSGSGSGTDFTLTISSLQPEDFATYYCQQYYAFPHTFGQGTKVEIKR | – | – | – | – | – | – | 1 | 1.2 | no binding | 144
MOR05286 IgG4 (antibody, V domains shown, IgG4; also called MOR5286) VH: QVQLKESGPALVKPTQTLTLTCTFSGFSLSTSGMGVSWIRQPPGKALEWLALIDWTDDKYYSTSLKTRLTISKDTSKNQVVLTMTNMDPVDTATYYCARTVGKGLYRVDNWGQGTLVTVSS VL: DIELTQPPSVSVAPGQTARISCSGDNLGSKFAYWYQQKPGQAPVLVIYDDSKRPSGIPERFSGSNSGNTATLTISGTQAEDEADYYCQSWDSSSGNDVFGGGTKLTVLG | – | – | – | – | – | – | 4.8 | 2.4 | no binding | 271
MOR05271 Fab (Fab, V domains shown) VH: QVQLKESGPALVKPTQTLTLTCTFSGFSLSTSTMGVSWIRQPPGKALEWLAWIYWDDDKDYSTSLKSRLTISKDTSKNQVVLTMTNMDPVDTATYYCARANPDLGYFDYWGQGTLVTVSS VL: DIALTQPASVSGSPGQSITISCTGTSSDLGESNYVSWYQQHPGKAPKVMIYDVNKRPSGVSNRFSGSKSGNTASLTISGLQAEDEADYYCGSYDEEDNVFGGGTKLTVLG | 0.021 | 2 | 3 | 0.021 | 0.025 | 0.01 | – | – | – | –
MOR05278 Fab (Fab, V domains shown) VH: QVQLVESGGGLVQPGGSLRLSCAASGFTFSSYGMSWVRQAPGKGLEWVSYIEPKLFWYATFYAASVKGRFTISRDNSKNTLYLQMNSLRAEDTAVYYCARNDFMEPAYFALWGQGTLVTVSS VL: DIELTQPPSVSVAPGQTARISCSGDNLGSYYAYWYQQKPGQAPVGVIYDDSERPSGIPERFSGSNSGNTATLTISGTQAEDEADYYCSSYTYSKNNVFGGGTKLTVLG | 0.031 | 3 | 4 | 0.031 | 0.24 | 0.08 | – | – | – | –
MOR05281 Fab (Fab, V domains shown) VH: QVQLKESGPALVKPTQTLTLTCTFSGFSLSTRGVGVSWIRQPPGKALEWLALIYWDEDKYYSTSLKTRLTISKDTSKNQVVLTMTNMDPVDTATYYCARYQSGYYYNNDGWGVDIWGQGTLVTVSS VL: DIQMTQSPSSLSASVGDRVTITCRASQSISSWLNWYQQKPGKAPKLLIYAASSLQSGVPSRFSGSGSGTDFTLTISSLQPEDFATYYCQQYYAFPHTFGQGTKVEIKR | 0.001 | 2 | 2 | 0.001 | 0.07 | 0.06 | – | – | – | –
